pKd: −log10 of the molar value.
Target: neuropilin-1 (NRP1), wildtype, expressed on BW cells (human) (UniProt O14786)
Test: flow cytometry on cells; saturation: BW NRP1 cells with increasing concentrations of monomeric rh-C4Ad, detected with monoclonal C4d antibody and PE goat anti-mouse IgG; Langmuir isotherm for single-class 1:1 binding; apparent KD

## recombinant human C4Ad (rh-C4Ad) (domain or fragment)
  pKd: 6.15

From PMC6753332
